Test results reported in US20230251254A1, “METHOD FOR EVALUATING INTERACTION BETWEEN IMMOBILIZED SUBSTANCE IMMOBILIZED DIRECTLY OR INDIRECTLY ON SUBSTRATE AND PROXIMITY-DEPENDENT MODIFYING ENZYMELABELED SUBSTANCE TO BE ANALYZED” (CELLFREE SCIENCES CO.,LTD., priority 2020, published 2023).

Assays:
[1] = biological target: T1, MDM2 (Mus musculus, UniProt P23804); assay: AirID proximity-dependent biotin labeling on non-denatured protein array, TP53 and MDM2 (Example 2); format: binding; conditions: AirID-fused TP53; FLAG-GST-MDM2 on magnetic beads; HRP-labeled streptavidin
T1 construct: made in house; host or cells: wheat cell-free protein synthesis
T1 sequence (P23804 whole entry, the tested form may be a part): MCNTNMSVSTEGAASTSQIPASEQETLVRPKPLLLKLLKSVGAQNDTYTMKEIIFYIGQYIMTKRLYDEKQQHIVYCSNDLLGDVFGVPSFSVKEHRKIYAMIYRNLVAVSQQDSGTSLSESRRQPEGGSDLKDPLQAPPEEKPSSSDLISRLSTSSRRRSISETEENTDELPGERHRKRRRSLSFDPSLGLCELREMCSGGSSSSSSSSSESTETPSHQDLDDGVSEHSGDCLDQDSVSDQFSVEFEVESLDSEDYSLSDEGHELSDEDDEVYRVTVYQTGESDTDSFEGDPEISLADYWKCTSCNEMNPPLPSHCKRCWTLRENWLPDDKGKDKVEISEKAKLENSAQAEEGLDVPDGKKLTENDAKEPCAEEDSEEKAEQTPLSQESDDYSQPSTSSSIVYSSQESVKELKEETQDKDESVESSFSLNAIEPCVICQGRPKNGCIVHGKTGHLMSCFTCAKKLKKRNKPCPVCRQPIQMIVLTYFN
Excerpt: (§1) As a substance to be analyzed, template DNA in which TP53 (SEQ ID NO: 4) or Iκβα (SEQ ID NO: 5) was fused to AirID (SEQ ID NO: 3) was synthesized. As an immobilized substance (target protein), template DNA in which MDM2 (SEQ ID NO: 10), RelA (SEQ ID NO: 11), or any one of 10 kinds of proteins (controls) for comparison was fused to a FLAG™ tag protein and a GST protein was synthesized.
(§2) Thus, a non-denatured protein array was produced.

[2] = biological target: T2, CRBN and IKZF1 (Homo sapiens, UniProt Q96SW2); conditions: compound added to reaction buffer; AirID-fused CRBN
T2 sequence (Q96SW2 whole entry, the tested form may be a part): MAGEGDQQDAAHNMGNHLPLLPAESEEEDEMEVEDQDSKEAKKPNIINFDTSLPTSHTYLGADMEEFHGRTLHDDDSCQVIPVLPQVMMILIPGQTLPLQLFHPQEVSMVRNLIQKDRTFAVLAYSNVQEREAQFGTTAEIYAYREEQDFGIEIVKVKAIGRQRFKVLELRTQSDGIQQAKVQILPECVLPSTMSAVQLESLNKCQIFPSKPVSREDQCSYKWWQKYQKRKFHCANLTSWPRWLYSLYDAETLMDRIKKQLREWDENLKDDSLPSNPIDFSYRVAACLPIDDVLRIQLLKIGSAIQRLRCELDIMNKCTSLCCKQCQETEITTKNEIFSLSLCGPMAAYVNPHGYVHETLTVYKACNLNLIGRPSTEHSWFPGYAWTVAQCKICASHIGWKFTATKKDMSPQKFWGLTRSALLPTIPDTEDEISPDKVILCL
T2 sequence (as listed by the source): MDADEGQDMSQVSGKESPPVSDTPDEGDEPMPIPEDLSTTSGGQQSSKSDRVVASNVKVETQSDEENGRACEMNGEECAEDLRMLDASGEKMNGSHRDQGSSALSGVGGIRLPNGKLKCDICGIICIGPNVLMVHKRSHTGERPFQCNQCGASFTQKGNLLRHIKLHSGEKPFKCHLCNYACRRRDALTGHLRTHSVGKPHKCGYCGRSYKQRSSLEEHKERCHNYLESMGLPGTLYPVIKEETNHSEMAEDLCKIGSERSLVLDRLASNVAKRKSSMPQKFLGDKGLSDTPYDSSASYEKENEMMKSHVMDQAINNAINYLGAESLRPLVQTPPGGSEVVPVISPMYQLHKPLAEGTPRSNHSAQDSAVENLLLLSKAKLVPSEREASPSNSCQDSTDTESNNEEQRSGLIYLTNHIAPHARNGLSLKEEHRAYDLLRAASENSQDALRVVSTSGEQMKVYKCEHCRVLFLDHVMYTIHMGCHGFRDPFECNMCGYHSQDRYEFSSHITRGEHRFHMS
Method: (§3) In this Example, an interaction between proteins known to bind to each other, CRBN (SEQ ID NO: 7) and IKZF1 (SEQ ID NO: 6) or SALL4 (SEQ ID NO: 9), was analyzed. […] In view of this, the compound (thalidomide derivative) was added to a buffer to be used for a reaction to analyze how CRBN interacted with IKZF1 or SALL4 in a compound-dependent (binding recruiter) manner. The flow of this Example is illustrated in FIG. 3.
(§4) As a substance to be analyzed (protein), template DNA in which CRBN was fused to AirID and template DNA in which a mutant CRBN (SEQ ID NO: 8) having a mutation introduced into its binding site for the thalidomide derivative was fused to AirID were synthesized. As an immobilized substance (protein), template DNA was synthesized by fusing IKZF1, SALL4, or Venus (control) for comparison to a FLAG™ tag protein and a GST protein.
(§5) The synthesized template DNAs were used to synthesize AirID-fused substances to be analyzed and FLAG™-GST-fused immobilized substances through use of a wheat cell-free expression system.
(§6) The FLAG™-GST-fused immobilized substance (IKZF1, SALL4, or Venus) was bound to glutathione magnetic beads, followed by purification. The magnetic beads after the purification were dispensed and arranged on the wells of the plate, and immobilized by the magnetic force of the magnet plate.
(§7) The AirID-fused substance to be analyzed (CRBN or mutant CRBN) diluted with a reaction buffer containing biotin and ATP was allowed to react with the FLAG™-GST-fused immobilized substance (IKZF1, SALL4, or Venus) on the magnetic beads to perform biotin labeling of the FLAG™-GST-fused immobilized substance.
(§8) In order to remove the AirID-fused substance to be analyzed that was free in the reaction buffer or adsorbed onto the magnetic beads, the reaction buffer was removed and then washing was performed a plurality of times with a washing buffer.

[3] = biological target: CRBN and IKZF1 (Homo sapiens, UniProt Q96SW2, W386A/Y384A); conditions: mutant CRBN having a mutation in its binding site for the compound
Sequence of CRBN and IKZF1 (Homo sapiens, UniProt Q96SW2, W386A/Y384A) (Q96SW2 whole entry Y384A/W386A): as the sequence (Q96SW2 whole entry, the tested form may be a part) above, with Y384A, W386A counted along it
Method: as §3, §4, §5, §6, §7, §8

[4] = biological target: T3, CRBN and SALL4 (Homo sapiens, UniProt Q96SW2); conditions: compound added to reaction buffer; AirID-fused CRBN
T3 sequence (as listed by the source): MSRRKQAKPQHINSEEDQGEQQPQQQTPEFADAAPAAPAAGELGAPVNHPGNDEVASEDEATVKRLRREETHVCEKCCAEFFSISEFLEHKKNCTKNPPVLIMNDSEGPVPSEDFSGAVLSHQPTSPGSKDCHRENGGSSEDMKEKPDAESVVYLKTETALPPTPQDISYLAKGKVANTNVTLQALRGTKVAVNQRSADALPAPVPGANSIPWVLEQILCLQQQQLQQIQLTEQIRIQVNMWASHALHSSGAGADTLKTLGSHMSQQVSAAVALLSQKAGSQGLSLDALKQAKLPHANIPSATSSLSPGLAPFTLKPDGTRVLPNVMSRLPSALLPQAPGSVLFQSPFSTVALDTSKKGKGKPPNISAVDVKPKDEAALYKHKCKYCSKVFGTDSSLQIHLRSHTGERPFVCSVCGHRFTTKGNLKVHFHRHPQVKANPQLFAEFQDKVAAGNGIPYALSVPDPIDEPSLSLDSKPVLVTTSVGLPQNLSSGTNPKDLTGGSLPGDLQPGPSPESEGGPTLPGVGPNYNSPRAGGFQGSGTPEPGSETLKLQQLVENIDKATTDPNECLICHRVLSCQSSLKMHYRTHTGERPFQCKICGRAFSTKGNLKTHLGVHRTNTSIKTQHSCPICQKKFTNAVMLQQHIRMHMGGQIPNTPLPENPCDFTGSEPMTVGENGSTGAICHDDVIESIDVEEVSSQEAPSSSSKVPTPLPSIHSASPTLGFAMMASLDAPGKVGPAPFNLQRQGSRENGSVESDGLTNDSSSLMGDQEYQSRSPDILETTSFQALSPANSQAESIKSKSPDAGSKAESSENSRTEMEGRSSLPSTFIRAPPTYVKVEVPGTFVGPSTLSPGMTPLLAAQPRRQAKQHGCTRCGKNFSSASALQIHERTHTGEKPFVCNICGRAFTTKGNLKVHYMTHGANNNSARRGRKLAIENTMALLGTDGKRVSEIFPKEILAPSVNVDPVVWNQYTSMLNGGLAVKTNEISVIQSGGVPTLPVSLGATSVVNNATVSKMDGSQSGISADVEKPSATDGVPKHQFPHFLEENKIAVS
T3 sequence (Q96SW2 whole entry, the tested form may be a part): as the sequence (Q96SW2 whole entry, the tested form may be a part) above
Method: as §3, §4, §5, §6, §7, §8

[5] = biological target: CRBN and SALL4 (Homo sapiens, UniProt Q96SW2, W386A/Y384A); conditions: mutant CRBN having a mutation in its binding site for the compound
Sequence of CRBN and SALL4 (Homo sapiens, UniProt Q96SW2, W386A/Y384A) (Q96SW2 whole entry Y384A/W386A): as the sequence (Q96SW2 whole entry, the tested form may be a part) above, with Y384A, W386A counted along it
Method: as §3, §4, §5, §6, §7, §8

[6] = biological target: T2, CRBN and IKZF1; conditions: stated as known; cited from earlier work
[7] = biological target: T3, CRBN and SALL4; conditions: stated as known; cited from earlier work
[8] = biological target: T4, FLAG-GST-fused MDM2 (UniProt P23804 1-489); assay: proximity-biotinylation bead array, streptavidin-HRP luminescence; labeling 37°C 24 h; exposure 10 min
T4 construct: Immobilized on glutathione magnetic beads on the non-denatured protein array; Order of the parts follows the printed name FLAG-GST; also called FLAG-GST-fused immobilized substance (MDM2); not shown: FLAG tag protein; GST protein (glutathione S-transferase tag)
T4 sequence (P23804 whole entry, the tested form may be a part): as the sequence (P23804 whole entry, the tested form may be a part) above

[9] = biological target: T5, FLAG-GST-fused RelA (UniProt Q04206 1-551); assay: as above
T5 construct: Immobilized on glutathione magnetic beads on the non-denatured protein array; Order of the parts follows the printed name FLAG-GST; also called FLAG-GST-fused immobilized substance (RelA); not shown: FLAG tag protein; GST protein (glutathione S-transferase tag)
T5 sequence (Q04206 other isoform, or with tags, fused parts or gaps): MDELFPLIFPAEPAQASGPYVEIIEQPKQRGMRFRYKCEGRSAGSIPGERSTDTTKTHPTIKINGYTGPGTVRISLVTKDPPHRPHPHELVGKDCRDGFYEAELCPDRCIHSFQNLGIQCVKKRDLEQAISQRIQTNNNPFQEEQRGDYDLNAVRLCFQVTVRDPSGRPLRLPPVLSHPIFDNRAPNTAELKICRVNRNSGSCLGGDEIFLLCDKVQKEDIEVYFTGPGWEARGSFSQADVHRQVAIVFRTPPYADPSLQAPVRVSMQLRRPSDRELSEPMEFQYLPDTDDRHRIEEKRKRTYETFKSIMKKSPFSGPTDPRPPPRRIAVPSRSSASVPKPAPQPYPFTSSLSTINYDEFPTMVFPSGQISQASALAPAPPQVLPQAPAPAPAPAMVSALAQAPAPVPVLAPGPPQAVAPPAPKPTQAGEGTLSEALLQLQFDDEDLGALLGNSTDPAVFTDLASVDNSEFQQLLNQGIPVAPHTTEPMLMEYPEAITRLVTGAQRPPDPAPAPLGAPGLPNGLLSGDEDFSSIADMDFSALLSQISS

[10] = biological target: T4, FLAG-GST-fused MDM2; assay: proximity-biotinylation bead array, streptavidin-HRP luminescence; labeling 26°C 1 h; exposure 3 min; the filing calls the signal on this pair non-specific
[11] = biological target: T4, FLAG-GST-fused MDM2; assay: proximity-biotinylation bead array, streptavidin-HRP luminescence; labeling 26°C 3 h; exposure 3 min; the filing calls the signal on this pair non-specific
[12] = biological target: T4, FLAG-GST-fused MDM2; assay: proximity-biotinylation bead array, streptavidin-HRP luminescence; labeling 26°C 30 min; exposure 3 min; the filing calls the signal on this pair non-specific
[13] = biological target: T5, FLAG-GST-fused RelA; assay: proximity-biotinylation bead array, streptavidin-HRP luminescence; labeling 26°C 1 h; exposure 3 min; the filing calls the signal on this pair non-specific
[14] = biological target: T5, FLAG-GST-fused RelA; assay: proximity-biotinylation bead array, streptavidin-HRP luminescence; labeling 26°C 3 h; exposure 3 min; the filing calls the signal on this pair non-specific
[15] = biological target: T5, FLAG-GST-fused RelA; assay: proximity-biotinylation bead array, streptavidin-HRP luminescence; labeling 26°C 30 min; exposure 3 min; the filing calls the signal on this pair non-specific
[16] = biological target: T4, FLAG-GST-fused MDM2; assay: proximity-biotinylation bead array, streptavidin-HRP luminescence; labeling 26°C; exposure 10 min
[17] = biological target: T4, FLAG-GST-fused MDM2; assay: proximity-biotinylation bead array, streptavidin-HRP luminescence; labeling 26°C 1 h; exposure 10 min
[18] = biological target: T5, FLAG-GST-fused RelA; assay: as above
[19] = biological target: T4, FLAG-GST-fused MDM2; assay: proximity-biotinylation bead array, streptavidin-HRP luminescence; labeling 26°C 3 h; exposure 10 min
[20] = biological target: T5, FLAG-GST-fused RelA; assay: as above
[21] = biological target: T4, FLAG-GST-fused MDM2; assay: proximity-biotinylation bead array, streptavidin-HRP luminescence; labeling 26°C 30 min; exposure 10 min
[22] = biological target: T5, FLAG-GST-fused RelA; assay: as above
[23] = biological target: T6, RelA (Homo sapiens, UniProt Q04206); assay: AirID proximity-dependent biotin labeling on non-denatured protein array, Iκβα and RelA (Example 2); format: binding; conditions: AirID-fused Iκβα; FLAG-GST-RelA on magnetic beads; HRP-labeled streptavidin
T6 construct: made in house; host or cells: wheat cell-free expression system
T6 sequence (Q04206 1-548 isoform Q04206-4): as the sequence (Q04206 other isoform, or with tags, fused parts or gaps) above
Excerpt: as §1, §2

[24] = biological target: T4, FLAG-GST-fused MDM2; assay: proximity biotinylation by AirID fusion on bead protein array, streptavidin-HRP luminescence image
Method: The washing buffer was removed, and an HRP-labeled streptavidin solution diluted with the reaction buffer was added and allowed to react with the FLAG™-GST-fused immobilized substance on the magnetic beads. In order to remove free streptavidin, the reaction buffer was removed and then washing was performed a plurality of times with a washing buffer. After the removal of the washing buffer, a chemiluminescence reagent was added and subjected to a reaction. The resultant luminescence was detected with LAS4000 (manufactured by GE Healthcare) to provide measurement images.

TP53: TP53 (SEQ ID NO: 4), fused to AirID as substance to be analyzed in Example 2
luminescence (biotin detection) between TP53 and MDM2 [1]: recognized

Nc1cccc2c1C(=O)N(C1CCC(=O)NC1=O)C2=O (stereo not drawn) [Pomalidomide]
luminescence intensity of CRBN and IKZF1 [2]: particularly increased | luminescence intensity of mutant CRBN and IKZF1 [3]: hardly any increase | luminescence intensity of CRBN and SALL4 [4]: particularly increased | luminescence intensity of mutant CRBN and SALL4 [5]: hardly any increase | effect on binding of CRBN and IKZF1 [6]: enhance their binding | effect on binding of CRBN and SALL4 [7]: enhance their binding

BioID-fused Iκβα
signal value [8]: 4530

BioID-fused TP53
signal value [9]: 1860

TurboID-fused Iκβα
signal value [10]: > 65000 | signal value [11]: > 65000 | signal value [12]: 7030

TurboID-fused TP53
signal value [13]: > 65000 | signal value [14]: > 65000 | signal value [15]: 10200

B1: AVVA-R118S,Q141R mutant-fused Iκβα (other)
fusion protein: MSEQWSRKREILALLSSGHFVSGEELATQLGISRTAVSKHIAALEEYGVDIYSVKGKGYKLANPISLIDESKLKSAINNRCFYFDEIPSTNGFMLKHAEELKSGDICVAEYQSAGRGSRGRTWVSPYGCHLYFSLYWRFPRGMAQAMGLSLVVACSLVKVLKSFGVDGVGVKWPNDIYLNHKKLAGVLIEMSGQADSECHLVIGIGINMAMSEQQGKKIDQPWSDLSSLTSMPDKTELLIALQKQLKQDLELFEREGLKAFQPRWQEADLFYGKQIKLLMGENQVEGICRGIDEQGAVLLETDDGIQAFIGGEISLRAAMFQAAERPQEWAMEGPRDGLKKERLLDDRHDSGLDSMKDEEYEQMVKELQEIRLEPQEVPRSSEPWKQQLTEDGDSFLHLAIIHEEKALTMEVIRQVKGDLAFLNFQNNLQQTPLHLAVITNQPEIAEALLGAGCDPELRDFRGNTPLHLACEQGCLASVGVLTQSCTTPHLHSILKATNYNGHTCLHLASIHGYLGIVELLVSLGADVNAQEPCNGRTALHLAVDLQNPDLVSLLLKCGADVNRVTYQGYSPYQLTWGRPSTRIQQQLGQLTLENLQMLPESEDEESYDTESEFTEFTEDELPYDDCVFGGQRLTL
binding result [16]: no binding | signal value [17]: 190 | signal value [18]: 37500 | signal value [19]: 230 | signal value [20]: > 65000 | signal value [21]: 120 | signal value [22]: 10400

B2: AirID-fused Iκβα (other)
chain: MKDNTVPLTLISILADGEFHSGEQLGEQLGMSRAAINKHIKTLRDWGVDVFRVQGKGYCLPEPIQLLDEEKIRQQLDEGSVTVLPVIDSTNQYLLDRLDELTSGDVCIAEYQQAGRGSRGRKWFSPFGANLYLSMYWRLEQGPAAAMGLSLVIGIVMAETLQKLGADGVRVKWPNDLYLNDRKLAGILVEMTGKTGDAAHIVIGAGINLSMREPETDEVDQSWINLQEAGITIDRNQLAARLIKDLRSALRQFEQQGLAPFLSRWEALDNFINRPVKLIIGDREIHGIARGINEQGALLLEQDGVIKPWIGGEISLRSAMFQAAERPQEWAMEGPRDGLKKERLLDDRHDSGLDSMKDEEYEQMVKELQEIRLEPQEVPRSSEPWKQQLTEDGDSFLHLAIIHEEKALTMEVIRQVKGDLAFLNFQNNLQQTPLHLAVITNQPEIAEALLGAGCDPELRDFRGNTPLHLACEQGCLASVGVLTQSCTTPHLHSILKATNYNGHTCLHLASIHGYLGIVELLVSLGADVNAQEPCNGRTALHLAVDLQNPDLVSLLLKCGADVNRVTYQGYSPYQLTWGRPSTRIQQQLGQLTLENLQMLPESEDEESYDTESEFTEFTEDELPYDDCVFGGQRLTL
notes: Fusion made in a wheat cell-free system; also called AirID-fused substance to be analyzed (Iκβα)
luminescence (biotin detection) between Iκβα and RelA [23]: recognized | binding result [24]: no binding | signal value [17]: 690 | signal value [18]: 28000 | signal value [19]: 520 | signal value [20]: 48000 | signal value [21]: 370 | signal value [22]: 7940
